These results are taken from patent US12729368B2, “Methods and compositions for generating oligodendrocyte progenitor cells” (Trailhead Biosystems Inc., priority 2022, dated 2026).

Where “and” joins values, the source holds several entries; their conditions need not be identical. Identical values can stand only once.

What all share (type): cell-based, human
Test [1] deals with stage 2 early-OPCs. The test can be described thus: HD-DoE 8-factor model for stage 3 (version 1) on stage 2 early-OPCs. The following applies: optimized for maximum expression of OLIG1 at 256; positive impact. Here is the method: To further differentiate the cells to an oligodendrocyte progenitor identity, additional HD-DoE experiments were performed on the cells that were cultured in stage 1 and stage 2 differentiation media. After 3 days, gene expression of cells in different combinatorial conditions were investigated. At this time, we focused on maximal expression of signature oligodendrocyte progenitor genes such as SOX10, OLIG1 and PDGFRa (Goldman and Kuypers (2015) Development 142:3983-95; Marques et al. (2016) Science 352:1326-1329). In one 8-factor model, individual and combinatorial effects of LDN193189, SUN 11602, Activin A, Biotin, TTNPB, Isoproterenol, linoleic acid and T3+T4 were tested.
The same model was also optimized for maximum expression of PDGFRa at 3510.9. Two factor specifically, TTNPB and Linoleic acid determined the expression level of PDGFRa with factor contribution of 71.6 and 22.1, respectively (FIG. 17). […] The model was also optimized for highest expression of SOX10 at 18.8. In this optimization, TTNPB was the only input that could elevate the expression level of the selected gene (FIG. 18).
Dynamic profile analysis was utilized to explore combination sets that can optimize expression of all three selected genes. […]

The subject of test [2] is stage 2 early-OPCs. The test can be described thus: HD-DoE 12-factor model for stage 3 (version 1) on stage 2 early-OPCs. The following applies: positive. Here is the method:
In another model, the effects of Activin A and TTNPB along with LDN193189, MHY1485, PDGF-AA, AICAR, FGF2, CHIR99021, DBZ, MK2206, Purmorphamine and T3+T4 were tested on gene profile of differentiating cells. When this model was optimized for maximum expression of SOX10 at 54.7, we observed Activin A again had positive regulatory impact on its expression, with factor contribution of 4.7. Other positive factors included MK2206, with the highest factor contribution at 16.2, MHY1485 at 11.49, CHIR99021 at 9.6, DBZ at 9.3, FGF2 at 3.6 and PDGF-AA, with factor contribution less than 3 (FIG. 20).
In this model, we also investigated the conditions of expression of another important OPC gene, CSPG4 (Goldman and Kuypers (2015) Development 142:3983-95: van Tilborg et al. (2018) Glia 66:221-238).
Dynamic profile analysis was used to better assess the impact of the factors on our selected genes and find the combination set that can optimize their expression (FIG. 22). According to this analysis, even though Activin A has a positive effect on SOX10, it decreases level of PDGFRa and OLIG1. […]

Test [3] concerns OPCs. The experiment in a line: HD-DoE 12-factor model for stage 4 on OPCs, 6 days in culture. The following applies: positive. Here is the method:
To engineer the recipe of stage 4 of differentiation, 48 or 96 different combinations of effectors generated using Design-of-Experiments compression through D-optimality were robotically prepared. The effector combinations were prepared in a basal media and were subsequently added to the cells, which were treated with the stage 1, stage 2 and stage 3 differentiation media as described in the earlier examples to generate OPCs. […] Solutions within the tested space could then be explored to address desirability. […] Benarroch (2009) Neurology 72:1779-1785; Shi et al. (2019) Exp Ther Med, 18:1258-1266).

For test [4], the system named is OPCs. The experiment in a line: HD-DoE 8-factor model for stage 4 on OPCs. Particulars: optimized for maximal expression of CNP at 1339; positive. The method, then:
To engineer the recipe of stage 4 of differentiation, 48 or 96 different combinations of effectors generated using Design-of-Experiments compression through D-optimality were robotically prepared. The effector combinations were prepared in a basal media and were subsequently added to the cells, which were treated with the stage 1, stage 2 and stage 3 differentiation media as described in the earlier examples to generate OPCs. […] Solutions within the tested space could then be explored to address desirability.

B1: Activin A: an activator of one of the receptors of TGF-b superfamily (protein, UniProt P08476 311-426, looked up)
Inhibin beta A chain: GLECDGKVNICCKKQFFVSFKDIGWNDWIIAPSGYHANYCEGECPSHIAGTSGSSLSFHSTVINHYRMRGHSPFANLKSCCVPTKLRPMSMLYYDDGQNIIKKDIQNMIVEECGCS
Regarding B1, the factor contribution in test [1] turned out to be 50.2; in test [2] (optimized for maximum expression of CSPG4 at 38.6), 9.3; in test [2] (optimized for maximum expression of SOX10 at 54.7), 4.7.

B2: NT-3: TrkC agonist (protein, UniProt P20783 139-257, looked up)
Neurotrophin-3: YAEHKSHRGEYSVCDSESLWVTDKSSAIDIRGHQVTVLGEIKTGNSPVKQYFYETRCKEARPVKNGCRGIDDKHWNSQCKTSQTYVRALTSENNKLVGWRWIRIDTSCVCALSRKIGRT
B2: the factor contribution in test [3] (optimized for CNP at 1790) is 13 and 13.3; in test [3] (optimized for PLP1 at 3600), 7; in test [4] it was 24.
